From IntAct's records for PubMed 15226396

B1: Tyrosine-protein phosphatase non-receptor type 1 (Gallus gallus (Chicken)), O13016 (parent)
chain: MEIEKEFHRLDQAASWAAIYQDIRHEASDFPCKVAKHPRNKNRNRYRDVSPFDHSRIKLNQGDNDYINASLIKMEEAQRSYILTQGPLPNTCGHFWEMVWEQKSRGVVMLNRVMEKGSIKCAQYWPRKEEKEMFFEDTNLKLTLISEDIKSYYTVRQLELENLTTQETREILHFHYTTWPDFGVPESPASFLNFLFKVRESGSLNPEYGPVVVHCSAGIGRSGTFCLVDTCLLLMDKRKDPSSVDVKQVLLEMRKYRMGLIQTADQLRFSYLAVIEGAKFIMGDASVQEQWKELSNEDLDPPPEHTPPPPRPPKRTSEMHNGRMHEHAEFFPKHQVVEEEIRCSVSTAEETVSDGRVFSSVPLITDSTSQDTEIRRRTVGENLHVTAHKEESKSESVEEDDENMMTTWKPFLVNICMFTFLTAGAYLCYRVCFH

Variants of: B1
Conditions: with fer_human FER

effect of a mutation on the interaction | Variant
disrupting interaction | MEIEKEFHRLDQAASWAAIYQDIRHEASDFPCKVAKHPRNKNRNRYRDVSPFDHSRIKLNQGDNDYINASLIKMEEAQRSYILTQGPLPNTCGHFWEMVWEQKSRGVVMLNRVMEKGSIKCAQYWPRKEEKEMFFEDTNLKLTLISEDIKSYYTVRQLELENLTTQETREILHFHYTTWPDFGVPESPASFLNFLFKVRESGSLNPEYGPVVVHSSAGIGRSGTFCLVDTCLLLMDKRKDPSSVDVKQVLLEMRKYRMGLIQTADQLRFSYLAVIEGAKFIMGDASVQEQWKELSNEDLDPPPEHTPPPPRPPKRTSEMHNGRMHEHAEFFPKHQVVEEEIRCSVSTAEETVSDGRVFSSVPLITDSTSQDTEIRRRTVGENLHVTAHKEESKSESVEEDDENMMTTWKPFLVNICMFTFLTAGAYLCYRVCFH [C215S]
disrupting interaction | MEIEKEFHRLDQAASWAAIYQDIRHEASDFPCKVAKHPRNKNRNRYRDVSPFDHSRIKLNQGDNDYINASLIKMEEAQRSYILTQGPLPNTCGHFWEMVWEQKSRGVVMLNRVMEKGSIKCAQYWPRKEEKEMFFEDTNLKLTLISEDIKSFYTVRQLELENLTTQETREILHFHYTTWPDFGVPESPASFLNFLFKVRESGSLNPEYGPVVVHCSAGIGRSGTFCLVDTCLLLMDKRKDPSSVDVKQVLLEMRKYRMGLIQTADQLRFSYLAVIEGAKFIMGDASVQEQWKELSNEDLDPPPEHTPPPPRPPKRTSEMHNGRMHEHAEFFPKHQVVEEEIRCSVSTAEETVSDGRVFSSVPLITDSTSQDTEIRRRTVGENLHVTAHKEESKSESVEEDDENMMTTWKPFLVNICMFTFLTAGAYLCYRVCFH [Y152F]
